Each block holds one binder with its values, some of them ahead of it.
Assays:
[1] = target: T1, Human Serum Albumin (human, UniProt P02768 25-609); test: SPR (BIAcore)
T1 construct: immobilised on CM5 chips; also called HSA; human SA
Method: (§1) Binding to HSA, CSA, MSA and RSA by BIAcore was confirmed using purified protein at 3 concentrations 1 μM, 500 nM and 50 nM.

[2] = target: T2, Cynomolgus monkey Serum Albumin (Cynomolgus monkey, UniProt A2V9Z4 25-608); test: SPR (BIAcore)
T2 construct: also called CSA; cyno SA
Method: as §1

[3] = target: T1, Human Serum Albumin; test: SPR (BIAcore), second independent experiment
[4] = target: T3, mouse serum albumin (mouse, UniProt P07724 25-608); test: SPR (BIAcore), second independent experiment
T3 construct: also called MSA; mouse SA
T3 sequence (P07724 25-608 limits assumed): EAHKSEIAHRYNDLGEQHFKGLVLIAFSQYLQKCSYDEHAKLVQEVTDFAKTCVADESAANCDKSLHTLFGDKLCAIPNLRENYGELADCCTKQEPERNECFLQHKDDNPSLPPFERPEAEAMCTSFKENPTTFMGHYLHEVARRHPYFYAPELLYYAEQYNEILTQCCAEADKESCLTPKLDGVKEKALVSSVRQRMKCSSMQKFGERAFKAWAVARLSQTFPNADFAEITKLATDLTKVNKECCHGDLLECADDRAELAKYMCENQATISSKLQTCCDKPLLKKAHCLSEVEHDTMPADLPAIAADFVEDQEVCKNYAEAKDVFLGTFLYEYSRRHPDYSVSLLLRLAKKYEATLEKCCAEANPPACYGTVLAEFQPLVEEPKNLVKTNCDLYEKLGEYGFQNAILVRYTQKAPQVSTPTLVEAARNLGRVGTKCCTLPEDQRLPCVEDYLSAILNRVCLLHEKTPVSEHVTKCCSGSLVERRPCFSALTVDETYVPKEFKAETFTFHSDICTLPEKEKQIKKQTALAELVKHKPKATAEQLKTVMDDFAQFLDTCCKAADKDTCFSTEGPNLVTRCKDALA

[5] = target: T2, Cynomolgus monkey Serum Albumin; test: SPR (BIAcore), second independent experiment
[6] = target: T4, Rat Serum Albumin (rat, UniProt P02770 25-608); test: SPR (BIAcore), second independent experiment
T4 construct: also called RSA; rat SA
T4 sequence (P02770 25-608 limits assumed): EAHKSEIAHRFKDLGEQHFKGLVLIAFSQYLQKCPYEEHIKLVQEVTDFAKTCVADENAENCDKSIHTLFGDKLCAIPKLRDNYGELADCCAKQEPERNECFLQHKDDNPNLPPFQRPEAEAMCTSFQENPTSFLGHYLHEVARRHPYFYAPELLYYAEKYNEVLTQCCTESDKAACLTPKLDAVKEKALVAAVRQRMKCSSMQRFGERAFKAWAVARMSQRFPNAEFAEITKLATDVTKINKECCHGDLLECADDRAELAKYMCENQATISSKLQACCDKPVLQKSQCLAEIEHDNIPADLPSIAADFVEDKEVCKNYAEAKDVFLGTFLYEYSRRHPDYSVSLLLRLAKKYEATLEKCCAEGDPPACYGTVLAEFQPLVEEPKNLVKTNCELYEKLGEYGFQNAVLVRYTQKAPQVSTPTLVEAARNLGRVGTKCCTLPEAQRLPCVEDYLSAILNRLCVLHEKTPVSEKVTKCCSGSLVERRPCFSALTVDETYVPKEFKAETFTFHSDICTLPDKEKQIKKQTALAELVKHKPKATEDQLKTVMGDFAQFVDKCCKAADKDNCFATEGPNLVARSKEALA

[7] = target: T3, mouse serum albumin; test: SPR (BIAcore)
Method: as §1

[8] = target: T4, Rat Serum Albumin; test: SPR (BIAcore)
Method: as §1

[9] = target: T4, Rat Serum Albumin; test: SPR (BIAcore), DOM1m-21-23 fusion against unfused dAb
[10] = target: T4, Rat Serum Albumin; test: SPR (BIAcore), DOM1m-21-23 fusion; albumin taken as RSA from the sentence before; fused to DOM1m21-23

T2 sequence (A2V9Z4 25-608 limits assumed): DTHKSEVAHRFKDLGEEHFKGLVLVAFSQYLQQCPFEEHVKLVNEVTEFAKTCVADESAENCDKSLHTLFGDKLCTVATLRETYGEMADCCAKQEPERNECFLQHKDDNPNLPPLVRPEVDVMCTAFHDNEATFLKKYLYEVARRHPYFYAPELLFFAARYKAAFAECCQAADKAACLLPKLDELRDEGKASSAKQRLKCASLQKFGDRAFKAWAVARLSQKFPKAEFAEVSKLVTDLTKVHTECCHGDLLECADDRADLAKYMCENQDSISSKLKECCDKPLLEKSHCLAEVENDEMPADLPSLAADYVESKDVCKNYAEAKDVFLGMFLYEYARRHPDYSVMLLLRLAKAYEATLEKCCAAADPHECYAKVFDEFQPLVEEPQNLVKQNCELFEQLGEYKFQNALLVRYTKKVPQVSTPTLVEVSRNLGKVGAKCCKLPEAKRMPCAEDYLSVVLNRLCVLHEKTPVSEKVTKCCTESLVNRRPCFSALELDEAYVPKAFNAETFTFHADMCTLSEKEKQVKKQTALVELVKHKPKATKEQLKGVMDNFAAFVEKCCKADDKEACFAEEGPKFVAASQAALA

Kd [3]: 8260 nM | koff [3]: 0.056 s⁻¹ | kon [3]: 6780 M⁻¹ s⁻¹ | Kd [4]: 31 nM | koff [4]: 0.0715 s⁻¹ | kon [4]: 2.28e+06 M⁻¹ s⁻¹ | Kd [5]: 136 nM | koff [5]: 0.134 s⁻¹ | kon [5]: 980000 M⁻¹ s⁻¹ | Kd [6]: 140 nM | koff [6]: 0.114 s⁻¹ | kon [6]: 830000 M⁻¹ s⁻¹ | Kd [1]: 30 nM | koff [1]: 0.033 s⁻¹ | kon [1]: 1.24e+06 M⁻¹ s⁻¹ | Kd [7]: 26 nM | koff [7]: 0.034 s⁻¹ | kon [7]: 1.6e+06 M⁻¹ s⁻¹ | Kd [2]: 66 nM | koff [2]: 0.13 s⁻¹ | kon [2]: 2.5e+06 M⁻¹ s⁻¹ | Kd [8]: 45 nM | koff [8]: 0.07 s⁻¹ | kon [8]: 2.1e+06 M⁻¹ s⁻¹
B3: DOM7h-14-28 (other)
VL: DIQMTQSPSSLSASVGDRVTITCRASQWIGSQLSWYQQKPGKAPKLLIMWRSSLQSGVPSRFSGSGSGTDFTLTISSLQPEDFATYYCAQGAALPKTFGQGTKVEIKR
notes: Vk dAb; tag not included

Kd [3]: 1260 nM | koff [3]: 0.067 s⁻¹ | kon [3]: 54000 M⁻¹ s⁻¹ | Kd [4]: 33 nM | koff [4]: 0.0706 s⁻¹ | kon [4]: 2.11e+06 M⁻¹ s⁻¹ | Kd [5]: 7830 nM | koff [5]: 0.11 s⁻¹ | kon [5]: 14300 M⁻¹ s⁻¹ | Kd [6]: 6120 nM | koff [6]: 0.0554 s⁻¹ | kon [6]: 9000 M⁻¹ s⁻¹ | Kd [7]: 35 nM | koff [7]: 0.023 s⁻¹ | kon [7]: 870000 M⁻¹ s⁻¹ | Kd [8]: 30 nM | koff [8]: 0.029 s⁻¹ | kon [8]: 1.55e+06 M⁻¹ s⁻¹
B4: DOM7h-14-36 (other)
VL: DIQMTQSPSSLSASVGDRVTITCRASQWIGSQLSWYQQKPGKAPKLLIMWRSSLQSGVPSRFSGSGSGTDFTLTISSLQPEDFATYYCAQGFKKPRTFGQGTKVEIKR
notes: Vk dAb; tag not included

fold decrease in affinity compared to the unfused AlbudAb [9]: 2 fold
B7: DOM7h-11-15/DOM1m-21-23 fusion DMS number 5517 (bispecific antibody)
chain: EVQLLESGGGLVQPGGSLRLSCAASGFTFNRYSMGWLRQAPGKGLEWVSRIDSYGRGTYYEDPVKGRFSISRDNSKNTLYLQMNSLRAEDTAVYYCAKISQFGSNAFDYWGQGTQVTVSSASTSGPSDIQMTQSPSSLSASVGDRVTITCRASRPIGTMLSWYQQKPGKAPKLLILAFSRLQSGVPSRFSGSGSGTDFTLTISSLQPEDFATYYCAQAGTHPTTFGQGTKVEIKRAAAEQKLISEEDLN
notes: also called DMS5517

More lines, now with the values behind:

B1: DOM7h-11 (other)
VL: DIQMTQSPSSLSASVGDRVTITCRASRPIGTTLSWYQQKPGKAPKLLIWFGSRLQSGVPSRFSGSGSGTDFTLTISSLQPEDFATYYCAQAGTHPTTFGQGTKVEIKR
notes: Parental Vk dAb; also called DOM7h-12
Kd [1]: 2800 nM | koff [1]: 0.641 s⁻¹ | kon [1]: 700000 M⁻¹ s⁻¹

B2: DOM7h-11-15 (other)
VL: DIQMTQSPSSLSASVGDRVTITCRASRPIGTMLSWYQQKPGKAPKLLILAFSRLQSGVPSRFSGSGSGTDFTLTISSLQPEDFATYYCAQAGTHPTTFGQGTKVEIKR
notes: Vk dAb; pDOM5 myc tag not included; also called DOM7-11-15; DOM7h-12-15
kon [2]: 5.8e+06 M⁻¹ s⁻¹

B5: DOM7h-11-12/DOM1m-21-23 fusion DMS number 5516 (bispecific antibody)
chain: EVQLLESGGGLVQPGGSLRLSCAASGFTFNRYSMGWLRQAPGKGLEWVSRIDSYGRGTYYEDPVKGRFSISRDNSKNTLYLQMNSLRAEDTAVYYCAKISQFGSNAFDYWGQGTQVTVSSASTSGPSDIQMTQSPSSLSASVGDRVTITCRASRPIGTMLSWYQQKPGKAPKLLILFGSRLQSGVPSRFSGSGSGTDFTLTISSLQPEDFATYYCAQAGTHPTTFGQGTKVEIKRAAAEQKLISEEDLN
notes: also called DMS5516
fold decrease in affinity compared to the unfused AlbudAb [9]: 2 fold

B6: DOM7h-11/DOM1m-21-23 fusion DMS number 5515 (bispecific antibody)
chain: EVQLLESGGGLVQPGGSLRLSCAASGFTFNRYSMGWLRQAPGKGLEWVSRIDSYGRGTYYEDPVKGRFSISRDNSKNTLYLQMNSLRAEDTAVYYCAKISQFGSNAFDYWGQGTQVTVSSASTSGPSDIQMTQSPSSLSASVGDRVTITCRASRPIGTTLSWYQQKPGKAPKLLIWFGSRLQSGVPSRFSGSGSGTDFTLTISSLQPEDFATYYCAQAGTHPTTFGQGTKVEIKRAAAEQKLISEEDLN
notes: also called DMS5515; 'the DOM7h-12 clone' when fused
Kd [10]: 2800 nM

From patent US20110300158A1 (GlaxoSmithKline, published 2011)
